{
  "source": "paper PMC10403523",
  "key": {"[1]": {"system": "yeast SWI/SNF complex (WT) (Saccharomyces cerevisiae)", "assay": "competition", "details": "EMSA competition against 601 DNA; Kd EMSA: 6.7 nM DNA or nucleosome, 1.3-23 nM SWI/SNF, 4% native PAGE (79:1); Methods: prebinding 30 C, 15 min, gel in 0.5x …; binding buffer, salt and pH not"}, "[2]": {"system": "yeast SWI/SNF complex (WT) (Saccharomyces cerevisiae)", "assay": "EMSA", "details": "apparent KD, Kd EMSA: 6.7 nM DNA or nucleosome, 1.3-23 nM SWI/SNF, 4% native PAGE (79:1), Methods: prebinding 30 C, 15 min, gel in 0.5x TBE, binding buffer, salt and pH not …"}, "[3]": {"target": "29N59 mononucleosome: recombinant Xenopus laevis histone octamer on 601 DNA with 29 and 59 bp of flanking DNA (Xenopus laevis)", "assay": "native gel or EMSA; apparent KD; 6.7 nM 29N59 nucleosomes, WT or ΔAT SWI/SNF varied from 1.3 to 23 nM; 4% native polyacrylamide gel (79:1)"}},
  "note": "pKd, pKi: −log10 of the molar value.",
  "data": [
    {"substance": "pUC19 plasmid", "values": [
      {"measurement": "pKi", "setting": "[1]", "result": 7.92}
    ]},
    {"substance": "29N59 nucleosome", "values": [
      {"measurement": "pKd", "setting": "[2]; 6.7 nM nucleosome, recombinant Xenopus laevis histone octamer", "result": 8.12}
    ]},
    {"substance": "235 bp 601 DNA", "values": [
      {"measurement": "pKd", "setting": "[2]; 6.7 nM DNA", "result": 8.10}
    ]},
    {"substance": "yeast SWI/SNF complex with both AT-hooks of Snf2 deleted (from UniProt P22082 1-1703; P18480 1-905; Q12406 1-477; P09547 1-1314; P18888 1-332)", "values": [
      {"measurement": "pKd", "setting": "[3]", "result": 7.69}
    ]},
    {"substance": "yeast SWI/SNF complex, wild type (from UniProt P22082 1-1703; P18480 1-905; Q12406 1-477; P09547 1-1314; P18888 1-332)", "values": [
      {"measurement": "pKd", "setting": "[3]", "result": 8.12}
    ]}
  ]
}
